# Results from US20040081963.
# Target: Sso7d-ΔTaq (wild-type fusion) G24W (Sso7d numbering; reverts the mutant fusion to wild type) (Sulfolobus solfataricus? / Thermus aquaticus?) (UniProt P19821)
# Conditions: PCR yield ratio primer 57F over 57F5/6, reverse primer 732R, annealing 64 C
# Sequence of UniProt P19821 (P19821 whole entry, stated change not applied, the tested form may be a part): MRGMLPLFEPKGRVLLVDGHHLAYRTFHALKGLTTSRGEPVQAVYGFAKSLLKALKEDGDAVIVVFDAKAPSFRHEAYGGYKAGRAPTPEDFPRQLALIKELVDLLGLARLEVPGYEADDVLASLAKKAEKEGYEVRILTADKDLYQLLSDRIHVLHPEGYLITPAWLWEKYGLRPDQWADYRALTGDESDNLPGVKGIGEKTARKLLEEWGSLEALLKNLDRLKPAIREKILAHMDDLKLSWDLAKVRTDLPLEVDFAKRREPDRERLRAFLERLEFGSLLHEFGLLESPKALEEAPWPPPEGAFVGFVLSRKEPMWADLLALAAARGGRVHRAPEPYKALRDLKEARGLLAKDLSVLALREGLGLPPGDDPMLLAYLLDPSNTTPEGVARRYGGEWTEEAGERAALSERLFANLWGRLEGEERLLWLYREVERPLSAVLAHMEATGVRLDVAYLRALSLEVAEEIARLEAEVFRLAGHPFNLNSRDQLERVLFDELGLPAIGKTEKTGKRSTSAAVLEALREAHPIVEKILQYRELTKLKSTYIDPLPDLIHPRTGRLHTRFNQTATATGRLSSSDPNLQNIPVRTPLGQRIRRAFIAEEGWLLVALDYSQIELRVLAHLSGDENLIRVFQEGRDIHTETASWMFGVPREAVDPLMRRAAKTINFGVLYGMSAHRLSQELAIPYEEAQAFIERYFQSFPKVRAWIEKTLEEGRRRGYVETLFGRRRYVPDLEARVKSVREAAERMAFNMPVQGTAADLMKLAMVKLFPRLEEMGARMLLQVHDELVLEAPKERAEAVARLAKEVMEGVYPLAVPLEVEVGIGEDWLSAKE
sequence,measurement,value
TCCGCCCTTCTTCGTCATAACT (double strand) [mismatched primer 57F5/6 on lambda DNA],PCR match/mismatch yield ratio (match/mismatch yield ratio),0.92
